Patent publication US20050059087A1 (Amgen, published 2005)
No end group written: not given here.

T1: Pep-3, NH2-LEEKKGNYVVTDHG-OH (human)
T1 construct: Free peptide used in Biacore and KinExA (MW 1590 Da)
T1 peptide: H-LEEKKGNYVVTDHG-OH

T2: EGFRvIII peptide-OVA (PEP3 14-mer conjugated to ovalbumin) (human, also: conjugated to OVA, chemistry not given here)
T2 construct: also called VIII-pep-OVA; muEGFr
T2 peptide: LEEKKGNYVVTDHC

B1: SC-EGFRvIII-XG1-318 (antibody, human IgG1, V domains shown)
VH: QVQLVESGGGVVQPGRSLRLSCVASGFTLSSYGMHWVRQAPGKGLEWVAVTSYDGSKKDYADSVKGRFTISRDNSKNTLYLQMNSLRAEDTAVYYCVSEGYCDSSSCYKYYYYGMDVWGQGTTVTVSS
VL: DIVMTQSPLSLPVTPGEPASISCRSSQSLLYRNGNNYLDWYLQRPGQSPQLLIYLGSNRASGVPDRFSGSGSGTDFTLKISRVEAEDVGVYYCMQALQTPRTFGQGTKVEIK
notes: XenoMax-derived; also called 141A10
B2: SC-EGFRvIII-XG1-123/124 (antibody, human IgG1, V domains shown)
VH: QVQLVESGGGVVQPGRSLRLSCAASGFTLSSYGMHWVRQAPGKGLEWVAVMSYDGSKEDYADSVKGRFTISRDNSENTLYLQMNSLRAEDTAVYYCVSEGYCSSRSCYKYYYYGMDVWGQGTTVTVSS
VL: DIVMTQSPLSLPVTPGEPASISCRSSQSLLYRNGNNYLDWYLQKPGQSPQLLIYLGSNRASGVPDRFSGSGSGTDFTLNISRVEAEDVGHYYCMQALQTPRTFGQGTKVEIK
notes: also called 129A7
B3: SC-EGFRvIII-XG1-211 (antibody, V domains shown)
VH: QVQLVESGGGVVQPGRSLRLSCVASGFTLSSYGMHWVRQAPGKGLEWVAVTSYDGSKKDYADSAKGRFTISRDNSKNTLYLQMNSLRAEDTAVYYCVSEGYCSSSSCYKYYYYGMDVWGQGTTVTVSS
VL: DIVMTQSPLSLPVTPGEPASISCRSSQSLLYRNGNNYLDWYLQRPGQSPQLLIYLGSNRASGVPDRFSGSGSGTDFTLKISRVEAEDVGVYYCMQALQTPRTFGQGTKVEIK
notes: also called SC211; sc211
B4: SC-EGFRvIII-XG1-333 (antibody, human IgG1, V domains shown)
VH: QVQLVESGGGVVQPGRSLRLSCVASGFTLSSYGMHWVRQALGKGLEWVAVTSYDGSKKDYADSVKGRFTISRDNSKNTLYLQMNSLRAEDTAVYYCVSEGYCDSTSCYKYYYYGMDVWGQGTTVTVSS
VL: DIVMTQSPLSLPVTPGEPASISCRSSQSLLYRNGNNYLDWYLQRPGQSPQLLIYLGSNRASGVPDRFSGSGSGTDFTLKISRVEAEDVGVYYCMQALQTPRTFGQGTKVEIK
notes: XenoMax-derived
B5: SC-EGFRvIII-XG1-342 (antibody, human IgG1, V domains shown)
VH: QVQLVESGGGVVQPGRSLRLSCVASGFTLSSYGMHWVRQAPGKGLEWVAVTSYDGSKKDYADSVKGRFTISRDNSKNTLYLQMNSLRAEDTAVYYCVSEGYCDSTSCYKYYYYGMDVWGQGTTVTVSS
VL: DIVMTQSPLSLPVTPGEPASISCRSSQSLLYRNGNNYLDWYLQRPGQSPQLLIYLGSNRASGVPDRFSGSGSGTDFTLKISRVEAEDVGVYYCMQALQTPRTFGQGTKVEIK
notes: XenoMax-derived; also called 124D4
B6: 13.1.2 variant L99H-9.2 (antibody, V domains shown)
VH: QVQLVESGGGVVQPGRSLRLSCAASGFTFSSYGMHWVRQAPGKGLEWVAVIWYDGSNKYYVDSVKGRFTISRDNSKNTLYLQMNSLRAEDTAVYYCARDGWQQLAPFDYWGQGTLVTVSS
VL: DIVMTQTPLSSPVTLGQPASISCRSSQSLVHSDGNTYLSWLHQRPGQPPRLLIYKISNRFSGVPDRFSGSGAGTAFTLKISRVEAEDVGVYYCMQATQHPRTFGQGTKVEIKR
notes: also called Leu99His; 99His
B7: 13.1.2 variant N35G-3.1 (antibody, V domains shown)
VH: QVQLVESGGGVVQPGRSLRLSCAASGFTFSSYGMHWVRQAPGKGLEWVAVIWYDGSNKYYVDSVKGRFTISRDNSKNTLYLQMNSLRAEDTAVYYCARDGWQQLAPFDYWGQGTLVTVSS
VL: DIVMTQTPLSSPVTLGQPASISCRSSQSLVHSDGGTYLSWLHQRPGQPPRLLIYKISNRFSGVPDRFSGSGAGTAFTLKISRVEAEDVGVYYCMQATQLPRTFGQGTKVEIKR
notes: also called Asn35Gly; 35Gly
B8: 13.1.2 variant L217N-2.1 (antibody, V domains shown)
VH: QVQLVESGGGVVQPGRSLRLSCAASGFTFSSYGMHWVRQAPGKGLEWVAVIWYDGSNKYYVDSVKGRFTISRDNSKNTLYLQMNSLRAEDTAVYYCARDGWQQNAPFDYWGQGTLVTVSS
VL: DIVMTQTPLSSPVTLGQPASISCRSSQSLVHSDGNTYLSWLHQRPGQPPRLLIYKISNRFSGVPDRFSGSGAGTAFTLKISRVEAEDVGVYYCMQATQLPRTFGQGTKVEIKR
notes: also called Leu217Asn; 217Asn
B9: 13.1.2 variant L217Q-10.1 (antibody, V domains shown)
VH: QVQLVESGGGVVQPGRSLRLSCAASGFTFSSYGMHWVRQAPGKGLEWVAVIWYDGSNKYYVDSVKGRFTISRDNSKNTLYLQMNSLRAEDTAVYYCARDGWQQQAPFDYWGQGTLVTVSS
VL: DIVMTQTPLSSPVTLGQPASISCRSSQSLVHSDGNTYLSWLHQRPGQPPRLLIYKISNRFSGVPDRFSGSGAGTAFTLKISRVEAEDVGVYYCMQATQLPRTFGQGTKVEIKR
notes: also called Leu217Gln; 217Gln
B10: 13.1.2 variant Y172R-1.2 (antibody, V domains shown)
VH: QVQLVESGGGVVQPGRSLRLSCAASGFTFSSYGMHWVRQAPGKGLEWVAVIWYDGSNKRYVDSVKGRFTISRDNSKNTLYLQMNSLRAEDTAVYYCARDGWQQLAPFDYWGQGTLVTVSS
VL: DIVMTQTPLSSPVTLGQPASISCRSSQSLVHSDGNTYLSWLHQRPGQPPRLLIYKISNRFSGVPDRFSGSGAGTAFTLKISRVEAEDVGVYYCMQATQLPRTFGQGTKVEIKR
notes: also called Tyr172Arg; 172Arg
B11: SC-EGFRvIII-XG1-250 (antibody, V domains shown)
VH: EGQLLESGGGWVQPGESLRLSCAASGFTFSSYAMSWVRQAPGKGLEWVSAISGSGGSTNYADSVKGRFTISRDNSKNTLYLQVNSLRVEDTAVYYCAGSSGWSEYWGQGTLVTVSS
VL: DIQMTQSPSSLSASVGDSVTITCRTSQGIRKNLGWYQQKPGKAPKRLIYAASSLQSGVPSRFSGSGSGTEFTLTISRLQPEDFATYYCLQHHSYPLTFGGGTRVEIR
notes: also called SC250; sc250
B12: SC-EGFRvIII-XG2-150 (antibody, human IgG1, V domains shown)
VH: QVQLQQSGPGLVKPSQTLSLTCAISGDSVSSYSSAWNWIRQSPSRGLEWLGRAYHRSRWYYEYAVSVKSRINITPDTSKNQFSLQLNSVTPEDTAVYYCARGSRFDYWGQGTLVTVSS
VL: DIVMTQTPLSSPVTLGQPASISCRSSQSLVHRDGNTYLSWLQQRPGQPPRLLIYKISNRFSGVPDRFSGSGAGTDFTLKISRVEAEDVGIYFCMHTTQFPWTFGQGTRVEIK
notes: XenoMax-derived from an XMG2 mouse; also called sc150; 182D5
B13: SC-EGFRvIII-XG2-170 (antibody, human IgG1, V domains shown)
VH: QVQLQQSGPGLVKPSQTLSLTCAISGDSVSSNNAAWNWIRQSPARGLEWLGRTYYRSKWYNDYVVSVKSRITINPDTSKNQFSLQLNSVTPEDTAVYYCVRATAFDYWGQGTLVTVSS
VL: AIVLTQTPLSSPVTLGQPASISCRSSQSLVHRDGNTYLSWLQQRPGQPPRLLIYKISNRFSGVPDRFSGSGAGTDFTLKISRVEPDDVGVYYCMHTTQLPWTFGQGTKVEIK
notes: XenoMax-derived from an XMG2 mouse; also called SC170; sc170

Legend:
[1] = target: T3, EGFRvIII-rabbit Fc fusion protein (human; rabbit, UniProt P00533 298-645); test: ELISA, minilipofection supernatant titrated 1:2 on EGFRvIII-Rab Ig Fc fusion protein (1.5 ug/ml)
T3 construct: made in 293F cells; also called EGFRvIII-RbFc; EGFRvIII-Rab Ig Fc fusion protein; not shown: rabbit IgG Hinge-CH2-CH3 (721 bp fragment)
Protocol: The secretion ELISA tests were performed as follows. […] The plates were washed five times with dH₂O. Recombinant antibodies were titrated 1:2 for 7 wells from the undiluted minilipofection supernatant. The plates were washed five times with dH₂O. A goat anti-human IgG Fc-specific HRP-conjugated antibody was added at a final concentration of 1 μg/mL for 1 hour at RT for the secretion plates and binding plates detected with 1 μg/ml Rb anti Hu Fc for 1 hour at room temperature. The plates were washed five times with dH₂O. The plates were developed with the addition of TMB for 30 minutes and the ELISA was stopped by the addition of 1 M phosphoric acid. Each ELISA plate was analyzed to determine the optical density of each well at 450 nm.

[2] = target: T4, EGFRvIII, full length, expressed by transfected cells (NR6 M, H1477, 300.19/EGFRvIII) (human, UniProt P00533 298-1210); test: cell-based or functional assay
[3] = target: T4, EGFRvIII, full length, expressed by …; test: FACS on NR6 M cells, antibody at 0.25 µg/ml with SS Alexa anti-human IgG Fab, 37° C. for 1 hr, no glutathione (total cell-associated fluorescence)
Protocol: XenoMax derived IgG1 recombinant antibodies were expressed, purified and quantitated as described previously. Antibodies were further assayed for their ability to internalize the EGFRvIII receptor in NR6 M cells. […] The cells were washed with cold 10% FCS in PBS and secondary antibody (SS Alexa antihuman IgG Fab) at 3 μg/ml Fab was added and incubated for 7 mins on ice. The cells were washed with cold 10% FCS in PBS once and then resuspended in cold media. Next, two sets of the triplicate were incubated at 37° C. and the remaining set was incubated at 4° C. for 1 hr. After that the cells incubated at 4° C. and one set of the cells incubated at 37° C. were treated with glutathione (as previously mentioned) for 1 hr on ice. Then the cells were washed and resuspended in 100 μl of cold 1% FCS in PBS and analyzed by FACS. The % internalization was calculated from the geometric mean obtained from the FACS analysis [(mean at 37° C. with glutathione—mean at 4° C. with glutathione)/(mean at 37° C. without glutathione—mean at 4 C with glutathione)].

[4] = target: T1, Pep-3, NH2-LEEKKGNYVVTDHG-OH; test: Biacore 2000 SPR, mAb immobilised, pep-3 analyte
Text: The first step in these examples involved the immobilization of 5,600 resonance units (RU) to 8,000 RU of each mAb tested to one flow cell (Fc) of a CM5 sensor chip using standard EDC/NHS coupling chemistry. […] Three CM5 sensor chips were used in total to immobilize all mutant mAbs with a unique mAb immobilized to each flow cell. […] Biacore 2000 optical biosensors were used for all studies.

[5] = target: T2, EGFRvIII peptide-OVA (PEP3 14-mer …); test: XenoMax screening

| Binder | Titer, antigen binding [1] [reciprocal dilution] | % internalization [2] [%] | FACS Geometric mean, With glutathione 4° C. [2] [geometric mean] | FACS Geometric mean, With glutathione 37° C. [2] [geometric mean] | FACS Geometric mean (without glutathione, 37° C.) [3] [geometric mean] | Kd [4] [nM] | koff [4] [s⁻¹] | kon [4] [M⁻¹ s⁻¹] | further results |
| --- | --- | --- | --- | --- | --- | --- | --- | --- | --- |
| B1 | 64 | – | – | – | – | – | – | – | – |
| B2 | > 64 | – | – | – | – | – | – | – | – |
| B3 | > 64 | 21.6 | 4.78 | 8.23 | 20.8 | – | – | – | – |
| B4 | > 64 | – | – | – | – | – | – | – | – |
| B5 | > 64 | – | – | – | – | – | – | – | – |
| B6 | – | – | – | – | – | 395 | 0.033 | 83400 | – |
| B7 | – | – | – | – | – | 204 | 0.03 | 150000 | – |
| B8 | – | – | – | – | – | 185 | 0.04 | 220000 | – |
| B9 | – | – | – | – | – | 92 | 0.019 | 204000 | – |
| B10 | – | – | – | – | – | 927 | 0.076 | 82200 | – |
| B11 | > 64 | 16.7 | 4.84 | 8.07 | 24.1 | – | – | – | binding result [5]: binds |
| B12 | > 64 | 20 | 4.66 | 7.78 | 20.3 | – | – | – | – |
| B13 | > 64 | 20.1 | 4.67 | 7.75 | 20 | – | – | – | – |
